From PMC6858856
Read-outs that look alike come from different tables or passages of the source.

What was measured:
[1] = target: FANCB-FAAP100 heterodimer (Gallus gallus) (Gallus gallus); assay: cryo-EM structure
[2] = target: FANCB-FAAP100 heterodimer (Gallus gallus) (Gallus gallus); assay: cryo-EM structure; remark: listed apart in the source

stoichiometry N [1]: 2
stoichiometry N [2]: 2
Substance: FANCB-FAAP100 heterodimer (Gallus gallus) (complex)
